Where a chain is given by its changes, count along the chain named. Values belong to the molecule of their own block, whether it stands above or below them.
How the values were obtained:
PTHrP (1-34) [1] = target: T1, PTHrP (1-34) (Homo sapiens, UniProt P12272); assay: ELISA, determination of antigen-binding ability; design: coating buffer supplemented with 1 μg/ml of human PTHrP (1-34) (Peptide Research Institute); purchased Peptide Research Institute; conditions: antibodies expressed in COS-7 cells; H-chain humanized version a
Method: An ELISA plate for the determination of antigen-binding ability was prepared as follows. Each well of a 96-well ELISA plate was coated with 100 μl of a coating buffer supplemented with 1 μg/ml of human PTHrP (1-34) (Peptide Research Institute), and then blocked with 200 μl of a dilution buffer. Each well was added with each of the serial dilutions of the COS-7 cell culture supernatant in which each of the chimeric antibodies had been expressed, or added with each of the serial dilutions of each of the chimeric antibodies per se in a purified form. After the plate was incubated at room temperature and washed with PBS-Tween 20, each well of the plate was added with 100 μl of a solution of alkaline phosphatase-conjugated goat anti-human IgG antibodies (TAGO). After the plate was incubated at room temperature and washed with PBS-Tween 20, each well of the plate was added with 1 mg/ml of a substrate solution (“Sigma 104”, p-nitrophenylphosphoric acid, SIGMA). The solution was measured on its absorbance at 405 nm using Microplate Reader (Bio Rad).
An ELISA plate for determining antigen-binding ability was prepared as follows. Each well of a 96-well ELISA plate (Maxisorp, NUNC) was coated with 100 μl of a coating buffer containing 1 μg/ml of human PTHrP (1-34) and then blocked with 200 μl of a dilution buffer. Subsequently, each well was added with each of the serial dilutions of the COS-7 cell culture supernatant in which each of the hybrid antibodies and humanized antibodies was expressed, or added with each of the serial dilutions of each of the hybrid antibodies and humanized antibodies in a purified form. The plate was incubated at room temperature and washed with PBS-Tween 20. Subsequently, each well was added with 100 μl of alkaline phosphatase-conjugated goat anti-human IgG antibody (TAGO). The plate was incubated at room temperature and washed with PBS-Tween 20. Subsequently, each well was added with 1 mg/ml of a substrate solution (“Sigma 104”, p-nitrophenylphosphoric acid, SIGMA). The solution was measured on its absorbance at 405 nm using Microplate Reader (Bio Rad).

PTHrP (1-34) [2] = target: T1, PTHrP (1-34); assay: Hybridoma screening by solid phase RIA; type: binding; design: mixed with an equivalent amount of 4 ng/ml of PTHrP (1-34); host or cells: peptide added from outside to rat ROS17/2.8-5 cells; conditions: hybridoma culture supernatant
Method: The screening of hybridomas was performed by determining the presence of PTHrP-recognition antibodies in the culture supernatant of the wells in which cell growth had been observed in HAT medium, by solid phase RIA method. The hybridomas were collected from the wells in which the binding ability to the PTHrP-recognition antibodies had been confirmed. The hybridomas thus obtained was suspended into RPMI-1640 medium containing 15% FCS supplemented with OPI-supplement (Sigma), followed by unification of the hybridomas by limiting dilution method.

B1: m/hMBC1La λ: hybrid antibody: humanized H-chain with mouse FR1,2/human FR3,4 hybrid L-chain (from version a) (antibody, V domains shown)
VH: QVQLVESGGGVVQPGRSLRLSCAASGFTFSSYGMSWVRQAPGKGLEWVATISSGGSYTYYPDSVKGRFTISRDNSKNTLYLQMNSLRAEDTAVYYCARQTTMTYFAYWGQGTLVTVSS
VL: QLVLTQSSSASFSLGASAKLTCTLSSQHSTYTIEWYQQQPLKPPKYVMDLKQDGSHSTGDGIPDRFSGSSSGAERYLTISSLQSEDEADYYCGVGDTIKEQFVYVFGGGTKLTVL
antigen-binding (PTHrP-binding) activity compared with the chimeric #23-57-137-1 antibody (PTHrP (1-34) [1]): the same level of antigen-binding activity as that of the chimeric #23-57-137-1 antibody

B2: hmmMBC1L(λ): hybrid antibody: humanized H-chain with human FR1/mouse FR2,3,4 hybrid L-chain (antibody, V domains shown)
VH: B1 VH
VL: QLVLTQSPSASASLGASVKLTCTLSSQHSTYTIEWYQQQPLKPPKYVMDLKQDGSHSTGDGIPDRFSGSSSGADRYLSISNIQPEDEAMYICGVGDTIKEQFVYVFGGGTKVTVL
antigen-binding (PTHrP-binding) activity compared with the chimeric #23-57-137-1 antibody (PTHrP (1-34) [1]): the same level of antigen-binding activity as that of the chimeric #23-57-137-1 antibody

B3: m/hMBC1Ldλ: hybrid antibody: humanized H-chain with mouse FR1,2/human FR3,4 hybrid L-chain (from version d, 87 isoleucine) (antibody, V domains shown)
VH: B1 VH
VL: B1 VL with Y91I
antigen-binding (PTHrP-binding) activity compared with the chimeric #23-57-137-1 antibody (PTHrP (1-34) [1]): the same level of antigen-binding activity as that of the chimeric #23-57-137-1 antibody

binding ability to PTHrP (1-34) (PTHrP (1-34) [2]): high binding ability
B4: #23-57-137-1: mouse monoclonal antibody against human PTHrP (1-34) from hybridoma #23-57-137-1 (FERM BP-5631) (antibody, V domains shown)
VH: EVQLVESGGDLVKPGGSLKLSCAASGFTFSSYGMSWIRQTPDKRLEWVATISSGGSYTYYPDSVKGRFTISRDNAKNTLYLQMSSLKSEDTAMFYCARQTTMTYFAYWGQGTLVTVSA
VL: QLVLTQSSSASFSLGASAKLTCTLSSQHSTYTIEWYQQQPLKPPKYVMDLKQDGSHSTGDGIPDRFSGSSSGADRYLSISNIQPEDEAMYICGVGDTIKEQFVYVFGGGTKVTVLGQP

B5: antibody having both a humanized H-chain version “a” and a chimeric L-chain: antibody with humanized #23-57-137-1 H-chain version a and chimeric L-chain (antibody, V domains shown)
VH: B1 VH
VL: B4 VL
antigen-binding (PTHrP-binding) activity compared with the chimeric #23-57-137-1 antibody (PTHrP (1-34) [1]): the same level of PTHrP-binding activity as that of a chimeric antibody
